B1: Compound 24a (peptide)
peptide: {CH2CO}-FNFEDQSVDTWQPCG-NH2
modifications: thioether N-14
SMILES: CC(C)[C@@H]1NC(=O)[C@H](CO)NC(=O)[C@H](CCC(N)=O)NC(=O)[C@H](CC(=O)O)NC(=O)[C@H](CCC(=O)O)NC(=O)[C@H](Cc2ccccc2)NC(=O)[C@H](CC(N)=O)NC(=O)[C@H](Cc2ccccc2)NC(=O)CSC[C@@H](C(=O)NCC(N)=O)NC(=O)[C@@H]2CCCN2C(=O)[C@H](CCC(N)=O)NC(=O)[C@H](Cc2c[nH]c3ccccc23)NC(=O)[C@H]([C@@H](C)O)NC(=O)[C@H](CC(=O)O)NC1=O
B2: Compound 28a (peptide)
peptide: {CH2CO}-FNFEDQSARTWQPCG-NH2
modifications: thioether N-14
SMILES: C[C@@H]1NC(=O)[C@H](CO)NC(=O)[C@H](CCC(N)=O)NC(=O)[C@H](CC(=O)O)NC(=O)[C@H](CCC(=O)O)NC(=O)[C@H](Cc2ccccc2)NC(=O)[C@H](CC(N)=O)NC(=O)[C@H](Cc2ccccc2)NC(=O)CSC[C@@H](C(=O)NCC(N)=O)NC(=O)[C@@H]2CCCN2C(=O)[C@H](CCC(N)=O)NC(=O)[C@H](Cc2c[nH]c3ccccc23)NC(=O)[C@H]([C@@H](C)O)NC(=O)[C@H](CCCNC(=N)N)NC1=O
B3: Compound 31a (peptide)
peptide: {CH2CO}-FNFEDQSWDTWQPCG-NH2
modifications: thioether N-14
SMILES: C[C@@H](O)[C@@H]1NC(=O)[C@H](CC(=O)O)NC(=O)[C@H](Cc2c[nH]c3ccccc23)NC(=O)[C@H](CO)NC(=O)[C@H](CCC(N)=O)NC(=O)[C@H](CC(=O)O)NC(=O)[C@H](CCC(=O)O)NC(=O)[C@H](Cc2ccccc2)NC(=O)[C@H](CC(N)=O)NC(=O)[C@H](Cc2ccccc2)NC(=O)CSC[C@@H](C(=O)NCC(N)=O)NC(=O)[C@@H]2CCCN2C(=O)[C@H](CCC(N)=O)NC(=O)[C@H](Cc2c[nH]c3ccccc23)NC1=O
B4: Compound 32a (peptide)
peptide: {CH2CO}-FNFEDQSRDTWQPCG-NH2
modifications: thioether N-14
SMILES: C[C@@H](O)[C@@H]1NC(=O)[C@H](CC(=O)O)NC(=O)[C@H](CCCNC(=N)N)NC(=O)[C@H](CO)NC(=O)[C@H](CCC(N)=O)NC(=O)[C@H](CC(=O)O)NC(=O)[C@H](CCC(=O)O)NC(=O)[C@H](Cc2ccccc2)NC(=O)[C@H](CC(N)=O)NC(=O)[C@H](Cc2ccccc2)NC(=O)CSC[C@@H](C(=O)NCC(N)=O)NC(=O)[C@@H]2CCCN2C(=O)[C@H](CCC(N)=O)NC(=O)[C@H](Cc2c[nH]c3ccccc23)NC1=O
B5: Compound 33a (peptide)
peptide: {CH2CO}-FNFEDQSKDTWQPCG-NH2
modifications: thioether N-14
SMILES: C[C@@H](O)[C@@H]1NC(=O)[C@H](CC(=O)O)NC(=O)[C@H](CCCCN)NC(=O)[C@H](CO)NC(=O)[C@H](CCC(N)=O)NC(=O)[C@H](CC(=O)O)NC(=O)[C@H](CCC(=O)O)NC(=O)[C@H](Cc2ccccc2)NC(=O)[C@H](CC(N)=O)NC(=O)[C@H](Cc2ccccc2)NC(=O)CSC[C@@H](C(=O)NCC(N)=O)NC(=O)[C@@H]2CCCN2C(=O)[C@H](CCC(N)=O)NC(=O)[C@H](Cc2c[nH]c3ccccc23)NC1=O
B6: Compound 35a (peptide)
peptide: {CH2CO}-FNFEDQSAWTWQPCG-NH2
modifications: thioether N-14
SMILES: C[C@@H]1NC(=O)[C@H](CO)NC(=O)[C@H](CCC(N)=O)NC(=O)[C@H](CC(=O)O)NC(=O)[C@H](CCC(=O)O)NC(=O)[C@H](Cc2ccccc2)NC(=O)[C@H](CC(N)=O)NC(=O)[C@H](Cc2ccccc2)NC(=O)CSC[C@@H](C(=O)NCC(N)=O)NC(=O)[C@@H]2CCCN2C(=O)[C@H](CCC(N)=O)NC(=O)[C@H](Cc2c[nH]c3ccccc23)NC(=O)[C@H]([C@@H](C)O)NC(=O)[C@H](Cc2c[nH]c3ccccc23)NC1=O
B7: Compound 27a (peptide)
peptide: {CH2CO}-FNFEDQAADTWQPCG-NH2
modifications: thioether N-14
SMILES: C[C@@H]1NC(=O)[C@H](C)NC(=O)[C@H](CCC(N)=O)NC(=O)[C@H](CC(=O)O)NC(=O)[C@H](CCC(=O)O)NC(=O)[C@H](Cc2ccccc2)NC(=O)[C@H](CC(N)=O)NC(=O)[C@H](Cc2ccccc2)NC(=O)CSC[C@@H](C(=O)NCC(N)=O)NC(=O)[C@@H]2CCCN2C(=O)[C@H](CCC(N)=O)NC(=O)[C@H](Cc2c[nH]c3ccccc23)NC(=O)[C@H]([C@@H](C)O)NC(=O)[C@H](CC(=O)O)NC1=O
B8: Compound 34a (peptide)
peptide: {CH2CO}-FNFEDQSAKTWQPCG-NH2
modifications: thioether N-14
SMILES: C[C@@H]1NC(=O)[C@H](CO)NC(=O)[C@H](CCC(N)=O)NC(=O)[C@H](CC(=O)O)NC(=O)[C@H](CCC(=O)O)NC(=O)[C@H](Cc2ccccc2)NC(=O)[C@H](CC(N)=O)NC(=O)[C@H](Cc2ccccc2)NC(=O)CSC[C@@H](C(=O)NCC(N)=O)NC(=O)[C@@H]2CCCN2C(=O)[C@H](CCC(N)=O)NC(=O)[C@H](Cc2c[nH]c3ccccc23)NC(=O)[C@H]([C@@H](C)O)NC(=O)[C@H](CCCCN)NC1=O
B9: Compound 36a (peptide)
peptide: {CH2CO}-FNFEDQSAYTWQPCG-NH2
modifications: thioether N-14
SMILES: C[C@@H]1NC(=O)[C@H](CO)NC(=O)[C@H](CCC(N)=O)NC(=O)[C@H](CC(=O)O)NC(=O)[C@H](CCC(=O)O)NC(=O)[C@H](Cc2ccccc2)NC(=O)[C@H](CC(N)=O)NC(=O)[C@H](Cc2ccccc2)NC(=O)CSC[C@@H](C(=O)NCC(N)=O)NC(=O)[C@@H]2CCCN2C(=O)[C@H](CCC(N)=O)NC(=O)[C@H](Cc2c[nH]c3ccccc23)NC(=O)[C@H]([C@@H](C)O)NC(=O)[C@H](Cc2ccc(O)cc2)NC1=O
B10: Compound 30a (peptide)
peptide: {CH2CO}-FNFEDQGADTWQPCG-NH2
modifications: thioether N-14
SMILES: C[C@@H]1NC(=O)CNC(=O)[C@H](CCC(N)=O)NC(=O)[C@H](CC(=O)O)NC(=O)[C@H](CCC(=O)O)NC(=O)[C@H](Cc2ccccc2)NC(=O)[C@H](CC(N)=O)NC(=O)[C@H](Cc2ccccc2)NC(=O)CSC[C@@H](C(=O)NCC(N)=O)NC(=O)[C@@H]2CCCN2C(=O)[C@H](CCC(N)=O)NC(=O)[C@H](Cc2c[nH]c3ccccc23)NC(=O)[C@H]([C@@H](C)O)NC(=O)[C@H](CC(=O)O)NC1=O
B11: Compound 29a (peptide)
peptide: {CH2CO}-FNFEDQNADTWQPCG-NH2
modifications: thioether N-14
SMILES: C[C@@H]1NC(=O)[C@H](CC(N)=O)NC(=O)[C@H](CCC(N)=O)NC(=O)[C@H](CC(=O)O)NC(=O)[C@H](CCC(=O)O)NC(=O)[C@H](Cc2ccccc2)NC(=O)[C@H](CC(N)=O)NC(=O)[C@H](Cc2ccccc2)NC(=O)CSC[C@@H](C(=O)NCC(N)=O)NC(=O)[C@@H]2CCCN2C(=O)[C@H](CCC(N)=O)NC(=O)[C@H](Cc2c[nH]c3ccccc23)NC(=O)[C@H]([C@@H](C)O)NC(=O)[C@H](CC(=O)O)NC1=O

Bridge positions count the residues as written; N and C are the ends.

T1 sequence (P10144 21-247 limits assumed): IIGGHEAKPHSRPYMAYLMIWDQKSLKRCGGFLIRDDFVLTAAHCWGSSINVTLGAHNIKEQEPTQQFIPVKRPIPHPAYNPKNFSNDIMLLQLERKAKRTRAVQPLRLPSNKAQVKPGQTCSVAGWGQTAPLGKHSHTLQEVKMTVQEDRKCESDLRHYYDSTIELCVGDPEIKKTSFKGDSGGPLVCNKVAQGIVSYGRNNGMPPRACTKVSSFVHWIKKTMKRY

The experiment concerns the target T1, human Granzyme B (human, UniProt P10144 21-247).
T1 construct: Captured on a Series S Streptavidin chip for SPR; also called hGranzyme B; GzmB
In words: SPR, Biacore 8k+, hGranzyme B captured on SA chip, single cycle kinetics, 1:1 model. The protocol:
The kinetics of test peptide binding to human Granzyme B (hGranzyme B) was determined by SPR. All experiments were performed at 25° C. using the Biacore 8k+ instrument (Cytiva, Marlborough, MA). The Biacore 8k+ Insight Evaluation Software Version 3.0 was used to fit the data with a 1:1 binding model to determine the association rate constant kₐ (M⁻¹s⁻¹, where “M” ~equals molar and “s” ~equals seconds) and the dissociation rate constant kd (s⁻¹). These rate constants were used to calculate the equilibrium dissociation constant. KD (M)=kd/kₐ.
To measure the binding kinetics of peptides of interest, surfaces were prepared by a capture method to a Series S Streptavidin (SA) chip using a 1×HBS-EP+ running buffer (Cytiva). hGranzyme B was diluted to 10 μg/mL in IX HBS-EP+ and flowed over spot 2 of each flow cell on the chip at a flow rate of 10 ul/min for 20 s to achieve a level of capture of ~1100 RU. An unmodified spot 1 of each flow cell was used as a matrix binding control or reference surface. Binding kinetics were measured using single cycle kinetics at 25° C. by injecting 5 concentrations with 3-fold serial dilutions of test peptides from 0.01 μM to 1 μM. Compound dilutions were performed manually in a running buffer containing 1×HBS-EP+(Cytiva), and a final concentration of 2% DMSO. The interaction analyses over hGranzyme B, were performed using a 120 s association time and a 900 s dissociation time. All experiments were conducted at a flow rate of 50 μL/min with a data collection rate of 10 Hz.
Peptide dilution series included 2 zero concentration points (no compound) which were averaged and subtracted from the peptide concentration injection as DMSO control responses. Binding data acquired from the reference surface (matrix binding control) were subtracted from the binding data for hGranzyme B surface on the chip to determine specific binding. Next, the association phase data were solvent corrected to account for any signal fluctuation throughout the experiment due to subtle DMSO concentration differences. Corrected response data were analyzed using the Biacore 8k+ Evaluation Software Version 3.0 according to the manufacturer. SPR data for representative compounds of the disclosure are found in Table 8.
B1 gave a dissociation constant Kd of 28.8 nM. The value for B2 was 18 nM; that for B3 was 23.3 nM; that for B4 was 30.3 nM. The value for B5 was 33.9 nM. The figure for B6 is 24 nM; for B7 it is 10.9 nM. With B8, the Kd was 29.3 nM. The figure for B9 is 24.2 nM; for B10 it is 25.9 nM. The figure for B11 is 31.4 nM.

As usually defined, the Kd is the concentration at which binding is half-saturated.

Source of the values: patent publication US20260207798A1, “CYCLIC PEPTIDES AS PET IMAGING AGENTS OF GRANZYME B” (priority 2022, published 2026).
